Reference: patent US10766960 (dated 2020)
Residue numbers refer to the chain shown, from its start. In names and notes the source's numbering stands. Several values for one entry are separate records, joined by “and”; a condition that tells them apart may be missing. Equal values may be shown once. Read-outs that look alike come from different tables or passages of the source.

B1: H240-Kn229/H240-Hl068/L73-k0 (antibody)
chain 1: QDQLVQSGAEVKKPGASVKVSCKASGFNIKDTYIQWVRQAPGQGLEWMGRIDPLRKQTKYREKFEGRVTITADTSTNTAYMELSSLRSEDTAVYYCVRSGREFDYWGQGTLVTVSSASTKGPSVFPLAPSSKSTSGGTAALGCLVKDYFPEPVTVSWNSGALTSGVHTFPAVLQSSGLYSLSSVVTVPSSSLGTQTYICNVNHKPSNTKVDKKVEPKSCDKTHTCPPCPAPEYYWGPIVFLFPPKPKDTLMISRTPEVTCVVVDVSDEDPEVKFNWYVDGVEVHNAKTKPREEQYNATYRVVSVLTVLHQDWLNGKEYKCKVSNKDLPAPIEKTISKAKGQPREPQVCTLPPSRDELTKNQVSLWCLVKGFYPSDIAVEWESNGQPENNYKTTPPVLDSDGSFFLYSKLTVDKSRWQQGNVFSCSVMHEALHNHYTQKSLSLSP
chain 2: QDQLVQSGAEVKKPGASVKVSCKASGFNIKDTYIQWVRQAPGQGLEWMGRIDPLRKQTKYREKFEGRVTITADTSTNTAYMELSSLRSEDTAVYYCVRSGREFDYWGQGTLVTVSSASTKGPSVFPLAPSSKSTSGGTAALGCLVKDYFPEPVTVSWNSGALTSGVHTFPAVLQSSGLYSLSSVVTVPSSSLGTQTYICNVNHKPSNTKVDKKVEPKSCDKTHTCPPCPAPELLGGPSVFLFPPKPKDTLMISRTPEVTCVVVDVSHEEPEVKFNWYVDGVEVHNAKTKPREEQYNSTYRVVSVLTVLHQDWLNGKEYKCKVSNDALPKPIEETISKAKGQPREPQVYTLPPSRCELTKNQVSLSCAVKGFYPSDIAVEWESNGQPENNYKTTPPVLDSDGSFFLVSKLTVDKSRWQQGNVFSCSVMHEALHNHYTQKSLSLSP
chain 3: DIQMTQSPSSLSASVGDRVTITCRASQDIHKYIAWYQQKPGQAPRLLIQYTSTLQPGVPSRFSGSGSGTDYTFTISSLQPEDIATYYCLQYEQLRTFGGGTKVEIKRTVAAPSVFIFPPSDEQLKSGTASVVCLLNNFYPREAKVQWKVDNALQSGNSQESVTEQDSKDSTYSLSSTLTLSKADYEKHKVYACEVTHQGLSSPVTKSFNRGEC
B2: H240-Kn225/H240-Hl076/L73-k0 (antibody)
chain 1: B1 chain 1 with Y234Q, D269E, D326A
chain 2: B1 chain 2 with K329M
chain 3: B1 chain 3
B3: H240-AK072/H240-BH076/L73-k0 (antibody)
chain 1: B1 chain 1 with I238S, D269E, D326A, C348Y, D355K, L357M, W365T, H434R
chain 2: B1 chain 2 with K329M, C355E, L357M, S365T, A367L, V406Y, K438E
chain 3: B1 chain 3
B4: H240-BH076/L73-k0 (antibody)
chain 1: B1 chain 2 with K329M, C355E, L357M, S365T, A367L, V406Y, K438E
chain 2: B1 chain 3
B5: H240-A5E/H240-B3E/L73-k0 (antibody)
chain 1: not shown
chain 2: not shown
chain 3: B1 chain 3
B6: H240-AK072/L73-k0 (antibody)
chain 1: B1 chain 1 with I238S, D269E, D326A, C348Y, D355K, L357M, W365T, H434R
chain 2: B1 chain 3

Tests used:
Experiment in all cases: SPR
FcgRIIb [1] = target: T1, FcgRIIb (human, UniProt P31994)
T1 chain: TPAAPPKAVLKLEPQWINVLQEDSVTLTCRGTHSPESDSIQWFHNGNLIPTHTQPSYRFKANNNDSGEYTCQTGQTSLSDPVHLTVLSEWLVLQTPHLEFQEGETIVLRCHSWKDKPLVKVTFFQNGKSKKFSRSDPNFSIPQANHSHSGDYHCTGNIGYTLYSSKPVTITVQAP

FcgRIIa H [2] = target: T2, FcgRIIa H (human, UniProt P12318)
T2 chain: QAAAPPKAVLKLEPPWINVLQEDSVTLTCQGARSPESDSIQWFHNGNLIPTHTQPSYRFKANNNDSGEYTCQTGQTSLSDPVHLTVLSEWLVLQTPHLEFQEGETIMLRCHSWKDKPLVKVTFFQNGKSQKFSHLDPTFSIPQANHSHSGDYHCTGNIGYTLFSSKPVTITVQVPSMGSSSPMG

FcgRIa [3] = target: T3, FcgRIa (human, UniProt P12314)
T3 chain: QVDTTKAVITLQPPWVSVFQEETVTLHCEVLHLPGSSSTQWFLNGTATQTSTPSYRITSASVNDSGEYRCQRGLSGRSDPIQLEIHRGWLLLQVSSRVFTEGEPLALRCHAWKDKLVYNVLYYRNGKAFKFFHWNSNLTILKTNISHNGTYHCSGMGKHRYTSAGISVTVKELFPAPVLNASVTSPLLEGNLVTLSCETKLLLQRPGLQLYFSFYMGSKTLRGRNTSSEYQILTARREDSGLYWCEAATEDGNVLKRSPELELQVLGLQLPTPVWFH

FcgRIIIa F [4] = target: T4, FcgRIIIa F (human, UniProt P08637)
FcgRIIa R [5] = target: T5, FcgRIIa R (human, UniProt P12318)
T5 chain: T2 chain with H134R

FcgRIIIa V [6] = target: T6, FcgRIIIa V (human, UniProt P08637)
FcgRIIa R [7] = target: T5, FcgRIIa R
FcgRIa [8] = target: T3, FcgRIa
FcgRIIIa V [9] = target: T6, FcgRIIIa V; remark: listed apart in the source
FcgRIIa H [10] = target: T2, FcgRIIa H
FcgRIIa H [11] = target: T2, FcgRIIa H
FcgRIIb [12] = target: T1, FcgRIIb
FcgRIa [13] = target: T3, FcgRIa
FcgRIIIa F [14] = target: T4, FcgRIIIa F; remark: listed apart in the source
FcgRIIIa V [15] = target: T6, FcgRIIIa V; remark: listed apart in the source
FcgRIIIa F [16] = target: T4, FcgRIIIa F; remark: listed apart in the source
FcgRIIa R [17] = target: T5, FcgRIIa R
FcgRIIb [18] = target: T1, FcgRIIb
FcgRIIIa F [19] = target: T4, FcgRIIIa F; remark: listed apart in the source
FcgRIIIa V [20] = target: T6, FcgRIIIa V; remark: listed apart in the source

T6 sequence (P08637 17-208 F176V): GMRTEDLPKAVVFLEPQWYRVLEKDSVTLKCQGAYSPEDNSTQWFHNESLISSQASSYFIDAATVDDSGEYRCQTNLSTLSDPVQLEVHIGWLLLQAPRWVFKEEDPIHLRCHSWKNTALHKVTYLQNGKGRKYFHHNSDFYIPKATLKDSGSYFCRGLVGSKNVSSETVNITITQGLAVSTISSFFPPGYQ
T4 sequence (P08637 17-208): as the sequence (P08637 17-208 F176V) above, with V160F counted along it

| Binder | Kd (FcgRIIb [1]) [nM] | Kd (FcgRIIa H [2]) [nM] | Kd (FcgRIa [3]) [nM] | Kd (FcgRIIIa F [4]) [nM] | Kd (FcgRIIa R [5]) [nM] | Kd (FcgRIIIa V [6]) [nM] | Kd (FcgRIa [8]) [nM] | Kd (FcgRIIa H [11]) [nM] | Kd (FcgRIIIa V [15]) [nM] | Kd (FcgRIIIa F [16]) [nM] | Kd (FcgRIIa R [17]) [nM] | Kd (FcgRIIb [18]) [nM] | Kd (FcgRIIIa F [19]) [nM] | Kd (FcgRIIIa V [20]) [nM] | further results |
| --- | --- | --- | --- | --- | --- | --- | --- | --- | --- | --- | --- | --- | --- | --- | --- |
| B1 | 200 | 39 | 0.13 | 2.1 | 16 | 0.77 |  |  |  |  |  |  |  |  |  |
| B2 | 5200 | 170 | 0.036 | 1.1 | 490 | 0.19 |  |  |  |  |  |  |  |  |  |
| B3 |  |  |  |  |  |  | 0.24 | 130 | 0.98 | 3.7 | 460 | 2900 |  |  | Kd (FcgRIIa R [7]): 240 nM and 280 nM; Kd (FcgRIIIa V [9]): 0.99 nM and 1.2 nM; Kd (FcgRIIa H [10]): 79 nM and 72 nM and 69 nM; Kd (FcgRIIb [12]): 1300 nM and 1400 nM and 1500 nM; Kd (FcgRIa [13]): 0.11 nM and 0.12 nM; Kd (FcgRIIIa F [14]): 3.7 nM and 2.9 nM |
| B4 |  |  |  |  |  |  |  |  |  |  |  |  | 26 | 5.3 |  |
| B5 |  |  |  |  |  |  | 0.61 | 910 | 330 | 1600 | 940 | 4300 |  |  |  |
| B6 |  |  |  |  |  |  |  |  |  |  |  |  | 300 | 29 |  |
